Blank lines part the entries; values can stand above or below the molecule they belong to.
Experiments:
[1] = system: T1, GST-Yki fusion protein (GST with full length Yki)
T1 sequence: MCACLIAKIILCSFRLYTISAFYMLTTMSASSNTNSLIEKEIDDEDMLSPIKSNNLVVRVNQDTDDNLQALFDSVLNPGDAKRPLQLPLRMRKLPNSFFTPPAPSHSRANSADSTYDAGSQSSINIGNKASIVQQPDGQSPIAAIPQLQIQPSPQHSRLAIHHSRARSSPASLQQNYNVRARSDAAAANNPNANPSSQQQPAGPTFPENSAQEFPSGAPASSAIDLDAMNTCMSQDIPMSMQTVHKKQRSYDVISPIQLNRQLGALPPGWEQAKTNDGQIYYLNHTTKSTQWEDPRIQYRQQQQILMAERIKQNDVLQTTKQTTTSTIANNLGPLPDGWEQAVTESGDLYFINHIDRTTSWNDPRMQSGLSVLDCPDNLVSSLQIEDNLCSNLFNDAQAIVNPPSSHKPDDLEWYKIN

V5-tagged Wts (Warts) = target: T2, V5-tagged Wts (Warts) (Drosophila, UniProt Q9VA38 1-1; Q9VA38 2-1105); test: co-immunoprecipitation from S2 cells (anti-HA IP, anti-V5 blot)
T2 construct: Expressed in S2 cells; in the kinase assay it was immunoprecipitated with anti-V5, alone or after co-expression with Hpo-Sav; also called Lats
T2 sequence: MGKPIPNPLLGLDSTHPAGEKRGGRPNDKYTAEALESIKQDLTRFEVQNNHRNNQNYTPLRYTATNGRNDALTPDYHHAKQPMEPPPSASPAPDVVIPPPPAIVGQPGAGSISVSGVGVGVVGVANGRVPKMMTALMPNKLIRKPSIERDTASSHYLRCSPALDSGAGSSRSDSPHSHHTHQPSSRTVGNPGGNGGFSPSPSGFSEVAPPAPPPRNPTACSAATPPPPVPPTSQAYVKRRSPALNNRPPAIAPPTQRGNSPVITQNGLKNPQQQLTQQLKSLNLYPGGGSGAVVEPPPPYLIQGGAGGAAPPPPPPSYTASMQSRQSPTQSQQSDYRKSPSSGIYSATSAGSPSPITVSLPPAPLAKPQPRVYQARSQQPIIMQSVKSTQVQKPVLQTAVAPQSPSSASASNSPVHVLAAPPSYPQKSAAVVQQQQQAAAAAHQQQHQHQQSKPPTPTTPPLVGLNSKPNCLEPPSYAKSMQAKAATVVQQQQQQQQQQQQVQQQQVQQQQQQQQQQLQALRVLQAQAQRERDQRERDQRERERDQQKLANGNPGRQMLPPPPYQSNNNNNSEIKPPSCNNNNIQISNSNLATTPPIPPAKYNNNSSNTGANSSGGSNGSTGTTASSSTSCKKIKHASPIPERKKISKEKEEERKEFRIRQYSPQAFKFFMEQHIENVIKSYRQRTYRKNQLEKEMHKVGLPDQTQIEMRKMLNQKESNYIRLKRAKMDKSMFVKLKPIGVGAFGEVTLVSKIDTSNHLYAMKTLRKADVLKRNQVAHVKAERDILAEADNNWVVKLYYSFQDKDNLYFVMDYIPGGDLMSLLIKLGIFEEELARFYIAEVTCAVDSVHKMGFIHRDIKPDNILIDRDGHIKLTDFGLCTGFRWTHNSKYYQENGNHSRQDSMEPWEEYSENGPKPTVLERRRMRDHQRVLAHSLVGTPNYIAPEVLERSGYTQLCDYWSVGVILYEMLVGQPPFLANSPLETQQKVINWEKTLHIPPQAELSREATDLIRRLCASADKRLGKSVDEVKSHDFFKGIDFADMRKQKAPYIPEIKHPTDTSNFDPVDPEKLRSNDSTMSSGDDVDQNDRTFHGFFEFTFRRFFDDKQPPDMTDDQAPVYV
From the text: HA-tagged wildtype Yki (Yki, lane 1), a mutant Yki carrying point mutations in the WW domains (Yki^{W292A P295A W361A P364A}, abbreviated as Yki^WM in lane 2), or a truncated Yki containing only the N-terminal half of the protein (Yki^N, lane 3) were co-expressed with V5-tagged Wts. α-HA immunoprecipitates were probed with and α-V5 antibody to detect physical interaction between the Yki variants and Wts. Note that wildtype Yki, but not Yki^WM or Yki^N, could immunoprecipitate Wts.
HA-tagged Yki was constructed by adding a C-terminal HA epitope ([…]) to Yki using the pAc5.1/V5-HisB vector (Invitrogen). N-terminal V5-tagged Wts was constructed in the same vector by adding a V5 tag ([…]) between the first and second codon of Wts. Point mutations of Yki and Wts were introduced using the QuikChange site-directed mutagenesis kit (Stratagene). Myc-tagged Hpo and Flag-tagged Sav constructs have been described previously (Wu et al., 2003). The pGEX4T-1 vector was used to express a fusion of GST with full length Yki the GST-Yki preparation contained two Yki-related bands, with the upper band migrating at the expected molecular weight. It also contained a contaminating band (FIG. 6C). The Yki-related bands, but not the contaminating band, were diminished by thrombin, which cleaves the GST-Yki fusion at the junction of GST and Yki (data not shown). […]

[2] = target: T3, GST-Yki fusion protein (GST with full length Yki)
T3 chain: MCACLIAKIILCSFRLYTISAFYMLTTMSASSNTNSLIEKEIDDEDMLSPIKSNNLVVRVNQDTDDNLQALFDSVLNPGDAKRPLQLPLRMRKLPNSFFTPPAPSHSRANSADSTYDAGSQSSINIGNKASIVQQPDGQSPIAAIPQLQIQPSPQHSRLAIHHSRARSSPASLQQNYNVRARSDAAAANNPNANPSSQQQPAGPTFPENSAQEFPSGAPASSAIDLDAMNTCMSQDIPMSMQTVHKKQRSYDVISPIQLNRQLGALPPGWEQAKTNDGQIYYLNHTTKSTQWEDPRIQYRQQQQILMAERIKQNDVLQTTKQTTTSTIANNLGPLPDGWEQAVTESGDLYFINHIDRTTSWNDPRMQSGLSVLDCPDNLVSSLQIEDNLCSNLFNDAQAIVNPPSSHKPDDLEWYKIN

[3] = target: GST-Tsc1 fusion (control substrate) [GST: P08515]
Sequence of GST-Tsc1 fusion (control substrate) [GST: P08515] (P08515 whole entry, looked up, the tested form may be a part): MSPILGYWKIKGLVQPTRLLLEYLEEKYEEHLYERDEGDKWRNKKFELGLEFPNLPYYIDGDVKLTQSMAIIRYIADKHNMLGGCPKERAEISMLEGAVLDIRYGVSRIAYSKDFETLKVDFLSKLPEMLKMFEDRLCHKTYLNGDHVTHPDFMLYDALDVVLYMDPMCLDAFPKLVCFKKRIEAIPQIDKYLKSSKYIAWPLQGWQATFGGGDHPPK

Molecule: V5-tagged kinase-dead Wts^K743R
- in vitro kinase activity (32P), kinase-dead Wts co-expressed with Hpo-Sav and immunoprecipitated [1]: a kinase dead mutation of Wts, WtsK^743R, completely abolished the in vitro kinase activity of Wts towards Yki

- binding result (V5-tagged Wts (Warts)): no binding
B1: HA-tagged Yki^W292A P295A W361A P364A (other)
chain: MCACLIAKIILCSFRLYTISAFYMLTTMSASSNTNSLIEKEIDDEDMLSPIKSNNLVVRVNQDTDDNLQALFDSVLNPGDAKRPLQLPLRMRKLPNSFFTPPAPSHSRANSADSTYDAGSQSSINIGNKASIVQQPDGQSPIAAIPQLQIQPSPQHSRLAIHHSRARSSPASLQQNYNVRARSDAAAANNPNANPSSQQQPAGPTFPENSAQEFPSGAPASSAIDLDAMNTCMSQDIPMSMQTVHKKQRSYDVISPIQLNRQLGALPPGWEQAKTNDGQIYYLNHTTKSTQAEDARIQYRQQQQILMAERIKQNDVLQTTKQTTTSTIANNLGPLPDGWEQAVTESGDLYFINHIDRTTSANDARMQSGLSVLDCPDNLVSSLQIEDNLCSNLFNDAQAIVNPPSSHKPDDLEWYKINYPYDVPDYA
notes: Expressed in S2 cells; also called Yki^WM; mutant Yki carrying point mutations in the WW domains

B2: V5-tagged Wts (Warts) (protein)
chain: MGKPIPNPLLGLDSTHPAGEKRGGRPNDKYTAEALESIKQDLTRFEVQNNHRNNQNYTPLRYTATNGRNDALTPDYHHAKQPMEPPPSASPAPDVVIPPPPAIVGQPGAGSISVSGVGVGVVGVANGRVPKMMTALMPNKLIRKPSIERDTASSHYLRCSPALDSGAGSSRSDSPHSHHTHQPSSRTVGNPGGNGGFSPSPSGFSEVAPPAPPPRNPTACSAATPPPPVPPTSQAYVKRRSPALNNRPPAIAPPTQRGNSPVITQNGLKNPQQQLTQQLKSLNLYPGGGSGAVVEPPPPYLIQGGAGGAAPPPPPPSYTASMQSRQSPTQSQQSDYRKSPSSGIYSATSAGSPSPITVSLPPAPLAKPQPRVYQARSQQPIIMQSVKSTQVQKPVLQTAVAPQSPSSASASNSPVHVLAAPPSYPQKSAAVVQQQQQAAAAAHQQQHQHQQSKPPTPTTPPLVGLNSKPNCLEPPSYAKSMQAKAATVVQQQQQQQQQQQQVQQQQVQQQQQQQQQQLQALRVLQAQAQRERDQRERDQRERERDQQKLANGNPGRQMLPPPPYQSNNNNNSEIKPPSCNNNNIQISNSNLATTPPIPPAKYNNNSSNTGANSSGGSNGSTGTTASSSTSCKKIKHASPIPERKKISKEKEEERKEFRIRQYSPQAFKFFMEQHIENVIKSYRQRTYRKNQLEKEMHKVGLPDQTQIEMRKMLNQKESNYIRLKRAKMDKSMFVKLKPIGVGAFGEVTLVSKIDTSNHLYAMKTLRKADVLKRNQVAHVKAERDILAEADNNWVVKLYYSFQDKDNLYFVMDYIPGGDLMSLLIKLGIFEEELARFYIAEVTCAVDSVHKMGFIHRDIKPDNILIDRDGHIKLTDFGLCTGFRWTHNSKYYQENGNHSRQDSMEPWEEYSENGPKPTVLERRRMRDHQRVLAHSLVGTPNYIAPEVLERSGYTQLCDYWSVGVILYEMLVGQPPFLANSPLETQQKVINWEKTLHIPPQAELSREATDLIRRLCASADKRLGKSVDEVKSHDFFKGIDFADMRKQKAPYIPEIKHPTDTSNFDPVDPEKLRSNDSTMSSGDDVDQNDRTFHGFFEFTFRRFFDDKQPPDMTDDQAPVYV
- in vitro kinase activity (32P), Wts co-expressed with Hpo-Sav and immunoprecipitated [2]: When co-expressed with Hpo-Sav, however, Wts displayed specific kinase activity towards Yki
- in vitro kinase activity (32P), Wts co-expressed with Hpo-Sav and immunoprecipitated [3]: Wts displayed specific kinase activity towards Yki (FIG. 6C, lane 2) but not a control substrate (FIG. 6C, lane 4)

— patent publication US20060286584A1 (University of Texas, published 2006)
